In patent US20250129146A1, “COMBINED CANCER THERAPY WITH AN EPITHELIAL CELL ADHESION MOLECULE (EPCAM) INHIBITOR AND A WNT INHIBITOR” (ACADEMIA SINICA, priority 2021, published 2025):
“Also recorded” adds a separate entry of the source. One block for each molecule: values may come before it.

What was measured:
EpCAM = molecular target: T1, EpCAM (Homo sapiens, UniProt P16422); conditions: general description of other anti-EpCAM antibodies; cited from earlier work
T1 construct: HEK293T cells were transfected with full length or EGF like-domain deletion mutant EpCAM-V5; V5; expressed in transfected cells; host or cells: HEK293T
T1 sequence (P16422 24-314): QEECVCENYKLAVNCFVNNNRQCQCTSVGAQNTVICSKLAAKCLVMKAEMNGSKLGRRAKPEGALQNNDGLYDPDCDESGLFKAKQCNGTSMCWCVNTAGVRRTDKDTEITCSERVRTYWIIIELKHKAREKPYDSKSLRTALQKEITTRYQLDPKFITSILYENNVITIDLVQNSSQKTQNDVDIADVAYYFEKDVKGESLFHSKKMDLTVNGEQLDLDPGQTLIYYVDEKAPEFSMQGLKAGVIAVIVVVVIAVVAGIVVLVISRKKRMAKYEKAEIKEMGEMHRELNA

[1] = system: colon cancer cells (SW620, HCT116); conditions: general description of other anti-EpCAM antibodies; cited from earlier work
[2] = system: TACE and presenilin-2 (PS2); assay: Phosphorylation of ADAM17 (TACE) and Presenilin2 (western blot); format: cell-based, human; conditions: HCT116 cells; EpEX, Wnt3A for 8 h
Description: For western blotting, cells were extracted using radioimmunoprecipitation assay (RIPA) buffer [(0.01 M sodium phosphate, pH 7.2), 150 mM NaCl, 2 mM EDTA, 50 mM NaF, 1% Nonidet P-40, 1% sodium deoxycholate, and 0.1% SDS)] containing phosphatase inhibitor (Roche) and protease inhibitor (Roche) cocktail. Equal amounts of protein were separated by SDS-PAGE and then transferred to PVDF membranes. The membranes were blocked with 3% BSA in TBST (Blocking solution) and incubated with necessary primary antibodies in the blocking solution overnight at 4° C. Membranes were then incubated with HRP-conjugated secondary antibodies in the blocking solution for 1 h at room temperature, and protein expression were detected. Antibodies used: anti-α-tubulin (Sigma), anti-EpCAM (abeam), anti-Active β-Catenin (Millipore), anti-total β-Catenin (abeam), anti-Frizzled 6 (CST), anti-Frizzled 7 (Santa Cruz Biotech), anti-LRP5 (abcam), anti-Phospho-LRP5 (abcam), anti-Phospho-LRP6 (CST), anti-LRP6 (CST) and anti-EpEX antibody EpAb3-5 (Produced in house), anti-ADAM17 (abcam), anti-phopho-ADAM17 (abcam), anti-Presenilin2 (abcam), anti-phospho-Presenilin2 (S327) (abcam), anti-phospho-Presenilin2 (S330) (abcam) and anti-Axin2 (CST).
To study the kinase activity of GSK3 and CK1, 10^6 cells were seeded overnight and treated with GSK3 inhibitor BIO (Sigma) or CK1 inhibitor PF-670462 (selleckchem) for 8 h. […]

recombinant FZD6 = molecular target: T2, recombinant FZD6 (Homo sapiens, UniProt O60353); assay: ELISA of EpEX binding to Wnt receptor-coated plates (FZD6); conditions: EpEX-His alone, 2 hours; optical density at 450 nm
T2 construct: purchased Proteintech
T2 sequence (O60353 19-706): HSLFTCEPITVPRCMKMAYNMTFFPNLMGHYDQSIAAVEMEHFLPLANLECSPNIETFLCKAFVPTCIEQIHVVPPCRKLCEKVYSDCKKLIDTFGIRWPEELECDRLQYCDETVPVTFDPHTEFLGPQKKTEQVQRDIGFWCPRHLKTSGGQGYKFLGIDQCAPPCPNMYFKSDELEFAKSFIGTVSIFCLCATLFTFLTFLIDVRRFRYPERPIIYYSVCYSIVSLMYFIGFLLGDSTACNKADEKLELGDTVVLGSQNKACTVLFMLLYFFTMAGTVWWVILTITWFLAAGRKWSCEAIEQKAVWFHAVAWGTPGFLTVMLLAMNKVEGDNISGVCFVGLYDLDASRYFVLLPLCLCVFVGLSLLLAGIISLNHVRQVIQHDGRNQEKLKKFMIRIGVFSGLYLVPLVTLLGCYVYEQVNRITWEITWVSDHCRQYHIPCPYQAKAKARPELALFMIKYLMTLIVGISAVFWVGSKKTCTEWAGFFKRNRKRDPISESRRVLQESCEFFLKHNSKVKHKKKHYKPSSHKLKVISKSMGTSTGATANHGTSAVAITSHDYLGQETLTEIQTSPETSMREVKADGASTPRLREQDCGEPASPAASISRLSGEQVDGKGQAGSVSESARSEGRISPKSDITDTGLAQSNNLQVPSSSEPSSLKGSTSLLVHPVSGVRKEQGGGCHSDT
Description: (§1) For ELISA, wells (at least 6 wells per single protein) were coated with recombinant FZD6 (Proteintech), recombinant FZD7 (Proteintech), recombinant LRP5 (Proteintech), recombinant LRP6 (Proteintech) overnight at 4° C. The wells were then blocked with 1% BSA and treated with EpEX-his (Produced in house by Expi293 Expression System) for 2 hours. Otherwise, EpEX-His was incubated with EpAb2-6 overnight and the complex was used to treat the protein-coated plates for 2 hours. Further anti-His antibody (abeam) was used and TMB was performed to record optical density at 450 nm.

recombinant LRP6 = molecular target: T3, recombinant LRP6 (Homo sapiens, UniProt O75581); assay: ELISA of EpEX binding to Wnt receptor-coated plates (LRP6); conditions: EpEX-His alone, 2 hours; optical density at 450 nm
T3 construct: purchased Proteintech
Description: as §1

T3 sequence (O75581 20-1613): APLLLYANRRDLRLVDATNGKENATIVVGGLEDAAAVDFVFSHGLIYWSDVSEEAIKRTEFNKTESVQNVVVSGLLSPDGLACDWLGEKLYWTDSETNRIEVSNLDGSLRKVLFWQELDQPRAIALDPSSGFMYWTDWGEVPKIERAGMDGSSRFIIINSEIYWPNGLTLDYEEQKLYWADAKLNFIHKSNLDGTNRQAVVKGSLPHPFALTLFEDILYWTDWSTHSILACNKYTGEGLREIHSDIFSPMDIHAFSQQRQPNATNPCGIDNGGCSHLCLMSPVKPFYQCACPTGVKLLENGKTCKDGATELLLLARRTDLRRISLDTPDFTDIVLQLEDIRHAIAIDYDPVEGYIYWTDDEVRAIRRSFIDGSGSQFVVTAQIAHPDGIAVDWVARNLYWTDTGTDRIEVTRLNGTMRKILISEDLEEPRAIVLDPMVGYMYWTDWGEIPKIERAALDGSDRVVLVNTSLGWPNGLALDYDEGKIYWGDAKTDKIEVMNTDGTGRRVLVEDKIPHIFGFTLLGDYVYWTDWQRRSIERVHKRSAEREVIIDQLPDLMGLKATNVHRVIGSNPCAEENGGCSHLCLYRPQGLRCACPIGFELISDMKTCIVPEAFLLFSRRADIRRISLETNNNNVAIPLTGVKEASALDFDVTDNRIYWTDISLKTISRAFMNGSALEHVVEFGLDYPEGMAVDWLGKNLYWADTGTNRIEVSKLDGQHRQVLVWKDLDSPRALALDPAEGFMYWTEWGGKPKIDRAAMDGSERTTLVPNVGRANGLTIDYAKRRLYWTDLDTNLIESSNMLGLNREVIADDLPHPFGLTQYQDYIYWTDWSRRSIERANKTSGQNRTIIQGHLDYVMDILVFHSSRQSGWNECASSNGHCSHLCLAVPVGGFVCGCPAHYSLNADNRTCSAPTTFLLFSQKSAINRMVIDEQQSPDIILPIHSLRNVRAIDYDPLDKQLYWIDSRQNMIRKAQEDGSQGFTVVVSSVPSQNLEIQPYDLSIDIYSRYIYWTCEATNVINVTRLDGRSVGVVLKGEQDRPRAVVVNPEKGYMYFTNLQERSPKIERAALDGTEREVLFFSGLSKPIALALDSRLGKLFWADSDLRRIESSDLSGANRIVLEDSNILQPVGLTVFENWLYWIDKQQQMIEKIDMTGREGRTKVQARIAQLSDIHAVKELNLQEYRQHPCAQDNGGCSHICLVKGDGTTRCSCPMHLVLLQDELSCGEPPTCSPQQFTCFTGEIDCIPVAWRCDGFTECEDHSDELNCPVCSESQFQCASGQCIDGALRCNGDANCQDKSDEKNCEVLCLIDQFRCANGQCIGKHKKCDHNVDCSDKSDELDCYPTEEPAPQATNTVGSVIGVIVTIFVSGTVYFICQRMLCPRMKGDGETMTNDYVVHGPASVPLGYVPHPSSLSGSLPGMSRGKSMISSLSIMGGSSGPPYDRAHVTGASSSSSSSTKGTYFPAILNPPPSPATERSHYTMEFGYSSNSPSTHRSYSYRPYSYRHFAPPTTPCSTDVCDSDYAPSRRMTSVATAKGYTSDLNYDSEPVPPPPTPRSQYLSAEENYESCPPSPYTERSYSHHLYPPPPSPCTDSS

Molecule: MT201: adecatumumab, a human anti-EpCAM antibody that was subjected to clinical trials [reference compound]
- EpCAM domains bound (EpCAM): target only the well-described EGF I domain of EpCAM; also recorded: binding to domain I only
- inducing apoptosis of cancer cells [1]: failing

B1: Wnt3A: recombinant Wnt3A (R & D systems) (protein, UniProt P56704 19-352, looked up)
Protein Wnt-3a: SYPIWWSLAVGPQYSSLGSQPILCASIPGLVPKQLRFCRNYVEIMPSVAEGIKIGIQECQHQFRGRRWNCTTVHDSLAIFGPVLDKATRESAFVHAIASAGVAFAVTRSCAEGTAAICGCSSRHQGSPGKGWKWGGCSEDIEFGGMVSREFADARENRPDARSAMNRHNNEAGRQAIASHMHLKCKCHGLSGSCEVKTCWWSQPDFRAIGDFLKDKYDSASEMVVEKHRESRGWVETLRPRYTYFKVPTERDLVYYEASPNFCEPNPETGSFGTRDRTCNVSSHGIDGCDLLCCGRGHNARAERRREKCRCVFHWCCYVSCQECTRVYDVHTCK
- phosphorylation of TACE and presenilin-2 (PS2) [2]: increases the phosphorylation

- EpEX binding to FZD6 (recombinant FZD6): bind with all receptor proteins
- EpEX binding to LRP6 (recombinant LRP6): bind with all receptor proteins
B2: EpEX: extracellular domain of EpCAM, produced in house by Expi293 Expression System (protein)
chain: T1 sequence (P16422 24-314)
- phosphorylation of TACE and presenilin-2 (PS2) [2]: increases the phosphorylation
